Patent publication US20150114310A1

What was measured:
Anti-roIFNT antibody [1] = assay: competitive RIA, unlabelled IFNT displacing 125I-roIFNT from the antibody; less dilute primary antibody
Anti-roIFNT antibody [2] = assay: competitive RIA, unlabelled IFNT displacing 125I-roIFNT from the antibody; primary antibody at 1:60,000

In the case of “recombinant ovine IFNT (roIFNT) (ligand)”, the amount of ligand required to displace 50% binding (Anti-roIFNT antibody [1]) is reported as 1.5 ng and the amount of ligand required to displace 50% binding (Anti-roIFNT antibody [2]) is reported as 0.4 ng.
